From article PMC3866193

Key:
[1] = biological target: Alexa Fluor 568-labeled GluA2 amino terminal domain; experiment: FRET or BRET; kinetic FRET in a spectrofluorometer, 20°C, excitation 495 nm, emission 603 nm; 50 nM donor-labeled and 50 nM AF568-labeled GluA2 ATD pre-equilibrated (30 min DL488, 60 min FAM), then 1 µM unlabeled GluA2 ATD added; decay fitted with exponential functions
[2] = biological target: EGFP-GluA2 ATD fusion protein; experiment: AUC; fluorescence-detected sedimentation velocity (FDS-SV), dilution series of labeled protein (Figure 3); 50,000 rpm, 20°C; 20 mM Na phosphate pH 7.5, 150 mM NaCl, 1 mM EDTA, 0.1 mg/mL BSA carrier; sw isotherm fitted with a monomer-dimer model; dimer to monomers

Sequence of Alexa Fluor 568-labeled GluA2 amino terminal domain (P19491 whole entry, the tested form may be a part): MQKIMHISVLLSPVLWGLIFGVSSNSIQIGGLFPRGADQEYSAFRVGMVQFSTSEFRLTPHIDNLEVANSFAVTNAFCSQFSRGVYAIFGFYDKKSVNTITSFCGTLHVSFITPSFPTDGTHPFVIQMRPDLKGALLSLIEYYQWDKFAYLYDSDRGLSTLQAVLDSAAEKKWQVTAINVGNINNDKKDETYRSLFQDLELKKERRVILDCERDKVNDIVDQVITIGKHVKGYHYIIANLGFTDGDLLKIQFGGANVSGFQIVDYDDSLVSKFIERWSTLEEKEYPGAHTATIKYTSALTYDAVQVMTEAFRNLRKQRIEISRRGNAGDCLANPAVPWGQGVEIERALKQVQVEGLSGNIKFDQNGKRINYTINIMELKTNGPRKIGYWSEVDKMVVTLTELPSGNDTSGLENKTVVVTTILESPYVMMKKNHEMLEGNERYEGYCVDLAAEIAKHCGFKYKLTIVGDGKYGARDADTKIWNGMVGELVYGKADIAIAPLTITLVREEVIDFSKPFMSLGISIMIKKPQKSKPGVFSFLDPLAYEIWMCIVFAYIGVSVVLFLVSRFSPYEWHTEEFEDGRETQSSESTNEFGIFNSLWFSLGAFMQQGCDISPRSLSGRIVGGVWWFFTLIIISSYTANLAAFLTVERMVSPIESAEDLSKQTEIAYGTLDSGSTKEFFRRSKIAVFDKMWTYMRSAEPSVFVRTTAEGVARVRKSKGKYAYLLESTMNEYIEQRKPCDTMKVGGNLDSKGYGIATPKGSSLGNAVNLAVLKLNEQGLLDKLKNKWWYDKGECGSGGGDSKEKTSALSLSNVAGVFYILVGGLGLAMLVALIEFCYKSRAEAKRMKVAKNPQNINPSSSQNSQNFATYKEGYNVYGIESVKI

- half life of the donor/acceptor heterodimer (single-exponential decay) [1]: 3.27 min
- Kd [2]: 25.4 nM
- stoichiometry N [2]: 2
B1: EGFP-GluA2 ATD fusion protein (domain or fragment)
chain: NSIQIGGLFPRGADQEYSAFRVGMVQFSTSEFRLTPHIDNLEVANSFAVTNAFCSQFSRGVYAIFGFYDKKSVNTITSFCGTLHVSFITPSFPTDGTHPFVIQMRPDLKGALLSLIEYYQWDKFAYLYDSDRGLSTLQAVLDSAAEKKWQVTAINVGNINNDKKDETYRSLFQDLELKKERRVILDCERDKVNDIVDQVITIGKHVKGYHYIIANLGFTDGDLLKIQFGGANVSGFQIVDYDDSLVSKFIERWSTLEEKEYPGAHTATIKYTSALTYDAVQVMTEAFRNLRKQRIEISRRGNAGDCLANPAVPWGQGVEIERALKQVQVEGLSGNIKFDQNGKRINYTINIMELKTNGPRKIGYWSEVDKMVVTLTELPS
modifications: not checked
